According to paper PMC10397247:

T1: P4
T1 chain: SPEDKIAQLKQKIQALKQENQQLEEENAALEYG

T2: P4mS
T2 chain: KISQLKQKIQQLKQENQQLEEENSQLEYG

T3: P5SC1
T3 chain: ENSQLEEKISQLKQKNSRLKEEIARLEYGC

T4: P5SC2
T4 chain: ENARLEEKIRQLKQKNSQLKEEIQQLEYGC

T5: P5
T5 chain: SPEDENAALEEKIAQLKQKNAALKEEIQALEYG

T6: P5mS
T6 chain: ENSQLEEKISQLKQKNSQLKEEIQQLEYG

T7: P6SC1
T7 chain: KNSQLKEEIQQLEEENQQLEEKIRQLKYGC

T8: P6SC2
T8 chain: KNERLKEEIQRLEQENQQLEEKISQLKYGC

T9: P6
T9 chain: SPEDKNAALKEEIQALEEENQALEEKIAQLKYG

T10: P6mS
T10 chain: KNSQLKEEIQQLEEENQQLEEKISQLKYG

T11: P7
T11 chain: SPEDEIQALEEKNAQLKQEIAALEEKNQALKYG

T12: P7mS
T12 chain: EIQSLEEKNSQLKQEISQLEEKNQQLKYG

T13: P8
T13 chain: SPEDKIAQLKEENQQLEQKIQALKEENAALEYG

T14: P8mS
T14 chain: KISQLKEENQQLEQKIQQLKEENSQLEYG

T15: P9
T15 chain: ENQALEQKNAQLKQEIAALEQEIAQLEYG

T16: 4H344-bA
T16 chain: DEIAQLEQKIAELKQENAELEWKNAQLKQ

T17: 4H363-bA
T17 chain: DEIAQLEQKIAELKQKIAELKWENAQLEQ

T18: 4H3907-bA
T18 chain: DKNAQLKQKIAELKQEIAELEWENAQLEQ

T19: 4H3961-bA
T19 chain: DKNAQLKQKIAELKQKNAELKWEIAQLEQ

T20: 4H470-bA
T20 chain: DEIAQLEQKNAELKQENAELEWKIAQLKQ


Columns and labels:
[1] = target: T1, P4; test: two-hybrid library CC1;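 further: natural log of median RNA to DNA barcode read ratio; higher means stronger binding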
[2] = target: T2, P4mS; test: two-hybrid library CC1; details: mean of both orientations;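 further: natural log of median RNA to DNA barcode read ratio; higher means stronger binding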
[3] = target: T3, P5SC1; test: two-hybrid library CC1; details: mean of both orientations;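 further: natural log of median RNA to DNA barcode read ratio; higher means stronger binding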
[4] = target: T4, P5SC2; test: two-hybrid library CC1; details: mean of both orientations;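 further: natural log of median RNA to DNA barcode read ratio; higher means stronger binding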
[5] = target: T5, P5; test: two-hybrid library CC1; details: mean of both orientations
[6] = target: T6, P5mS; test: two-hybrid library CC1; details: mean of both orientations
[7] = target: T7, P6SC1; test: two-hybrid library CC1; details: mean of both orientations
[8] = target: T8, P6SC2; test: two-hybrid library CC1; details: mean of both orientations
[9] = target: T9, P6; test: two-hybrid library CC1; details: mean of both orientations
[10] = target: T10, P6mS; test: two-hybrid library CC1; details: mean of both orientations
[11] = target: T11, P7; test: two-hybrid library CC1; details: mean of both orientations
[12] = target: T12, P7mS; test: two-hybrid library CC1; details: mean of both orientations
[13] = target: T13, P8; test: two-hybrid library CC1; details: mean of both orientations
[14] = target: T14, P8mS; test: two-hybrid library CC1; details: mean of both orientations
[15] = target: T15, P9; test: two-hybrid library CC1; details: mean of both orientations
[16] = target: T16, 4H344-bA; test: two-hybrid library CCNG1
[17] = target: T17, 4H363-bA; test: two-hybrid library CCNG1
[18] = target: T18, 4H3907-bA; test: two-hybrid library CCNG1
[19] = target: T19, 4H3961-bA; test: two-hybrid library CCNG1
[20] = target: T20, 4H470-bA; test: two-hybrid library CCNG1

Binder | interaction score [1] | interaction score [2] | interaction score [3] | interaction score [4] | interaction score [5] | interaction score [6] | interaction score [7] | interaction score [8] | interaction score [9] | interaction score [10] | interaction score [11] | interaction score [12] | interaction score [13] | interaction score [14] | interaction score [15] | interaction score [16] | interaction score [17] | interaction score [18] | interaction score [19] | interaction score [20]
SPEDKIAQLKQKIQALKQENQQLEEENAALEYG [P4] | -3 | -2.91 | -2.83 | -2.74 | -3.06 | -2.91 | -2.87 | -2.66 | -2.83 | -2.85 | -2.74 | -2.77 | -2.99 | -2.82 | -2.29 | – | – | – | – | –
DEIAQLEQKIAELKQENAELEWKNAQLKQ [4H344-bA] | – | – | – | – | – | – | – | – | – | – | – | – | – | – | – | -0.268 | -0.443 | 0.155 | 1.48 | 0.691
